Where no end group is shown, it is not given here. The star is where a group is joined. Biotin = O=C1N[C@H]2[C@H](CS[C@H]2CCCCC(=O)*)N1

The assay has as its target T1, Calmodulin from bovine brain (bovine, UniProt P62157 1-149).
T1 construct: calmodulin, bovine, purified from brain; also called purified bovine brain CaM; CaM; source: bought: Sigma-Aldrich Cat#208694, purified from bovine brain
Put plainly: SPR; Biacore 3000, 25 °C; biotinylated peptides captured on a streptavidin chip; CaM injected at 13.2 nM to 9.6 µM; HBSP (10 mM HEPES pH 7.4, 150 mM NaCl, 0.005% P20) with 1 mM CaCl2; equilibrium analysis, apparent KD. Conditions: both partners purified.

B1: Peptide INF2 2-19 L14L18A, biotinylated (for surface plasmon resonance) (peptide)
peptide: K(Biotin)GGSVKEGAQRKWAAAKEKAG
notes: added N-terminal K (biotinylated) and two G residues as spacer; INF2, human, amino acids 2-19 with L14A and L18A; also called double L14L18A 2-19 peptide mutant; source: synthetic peptide (Proteomics Facility, CNB, CSIC), HPLC purified
Regarding B1, the binding result is on record as “binds”.

The record behind these values is publication PMC9616786 (Cellular and Molecular Life Sciences, 2022).
